According to IntAct's records for PubMed 23503662:

B1: Cryptochrome-2 (Mus musculus), Q9R194 (parent)
chain: MAAAAVVAATVPAQSMGADGASSVHWFRKGLRLHDNPALLAAVRGARCVRCVYILDPWFAASSSVGINRWRFLLQSLEDLDTSLRKLNSRLFVVRGQPADVFPRLFKEWGVTRLTFEYDSEPFGKERDAAIMKMAKEAGVEVVTENSHTLYDLDRIIELNGQKPPLTYKRFQALISRMELPKKPAVAVSSQQMESCRAEIQENHDDTYGVPSLEELGFPTEGLGPAVWQGGETEALARLDKHLERKAWVANYERPRMNANSLLASPTGLSPYLRFGCLSCRLFYYRLWDLYKKVKRNSTPPLSLFGQLLWREFFYTAATNNPRFDRMEGNPICIQIPWDRNPEALAKWAEGKTGFPWIDAIMTQLRQEGWIHHLARHAVACFLTRGDLWVSWESGVRVFDELLLDADFSVNAGSWMWLSCSAFFQQFFHCYCPVGFGRRTDPSGDYIRRYLPKLKGFPSRYIYEPWNAPESVQKAAKCIIGVDYPRPIVNHAETSRLNIERMKQIYQQLSRYRGLCLLASVPSCVEDLSHPVAEPGSSQAGSISNTGPRALSSGPASPKRKLEAAEEPPGEELTKRARVTEMPTQEPASKDS
B2: F-box/LRR-repeat protein 3 (Homo sapiens), Q9UKT7 (parent)
chain: MKRGGRDSDRNSSEEGTAEKSKKLRTTNEHSQTCDWGNLLQDIILQVFKYLPLLDRAHASQVCRNWNQVFHMPDLWRCFEFELNQPATSYLKATHPELIKQIIKRHSNHLQYVSFKVDSSKESAEAACDILSQLVNCSLKTLGLISTARPSFMDLPKSHFISALTVVFVNSKSLSSLKIDDTPVDDPSLKVLVANNSDTLKLLKMSSCPHVSPAGILCVADQCHGLRELALNYHLLSDELLLALSSEKHVRLEHLRIDVVSENPGQTHFHTIQKSSWDAFIRHSPKVNLVMYFFLYEEEFDPFFRYEIPATHLYFGRSVSKDVLGRVGMTCPRLVELVVCANGLRPLDEELIRIAERCKNLSAIGLGECEVSCSAFVEFVKMCGGRLSQLSIMEEVLIPDQKYSLEQIHWEVSKHLGRVWFPDMMPTW
partner: B1 chain

Variants of: B1
Conditions: with per1_human PER1, O15534
Chain of per1_human PER1, O15534 (O15534 whole entry): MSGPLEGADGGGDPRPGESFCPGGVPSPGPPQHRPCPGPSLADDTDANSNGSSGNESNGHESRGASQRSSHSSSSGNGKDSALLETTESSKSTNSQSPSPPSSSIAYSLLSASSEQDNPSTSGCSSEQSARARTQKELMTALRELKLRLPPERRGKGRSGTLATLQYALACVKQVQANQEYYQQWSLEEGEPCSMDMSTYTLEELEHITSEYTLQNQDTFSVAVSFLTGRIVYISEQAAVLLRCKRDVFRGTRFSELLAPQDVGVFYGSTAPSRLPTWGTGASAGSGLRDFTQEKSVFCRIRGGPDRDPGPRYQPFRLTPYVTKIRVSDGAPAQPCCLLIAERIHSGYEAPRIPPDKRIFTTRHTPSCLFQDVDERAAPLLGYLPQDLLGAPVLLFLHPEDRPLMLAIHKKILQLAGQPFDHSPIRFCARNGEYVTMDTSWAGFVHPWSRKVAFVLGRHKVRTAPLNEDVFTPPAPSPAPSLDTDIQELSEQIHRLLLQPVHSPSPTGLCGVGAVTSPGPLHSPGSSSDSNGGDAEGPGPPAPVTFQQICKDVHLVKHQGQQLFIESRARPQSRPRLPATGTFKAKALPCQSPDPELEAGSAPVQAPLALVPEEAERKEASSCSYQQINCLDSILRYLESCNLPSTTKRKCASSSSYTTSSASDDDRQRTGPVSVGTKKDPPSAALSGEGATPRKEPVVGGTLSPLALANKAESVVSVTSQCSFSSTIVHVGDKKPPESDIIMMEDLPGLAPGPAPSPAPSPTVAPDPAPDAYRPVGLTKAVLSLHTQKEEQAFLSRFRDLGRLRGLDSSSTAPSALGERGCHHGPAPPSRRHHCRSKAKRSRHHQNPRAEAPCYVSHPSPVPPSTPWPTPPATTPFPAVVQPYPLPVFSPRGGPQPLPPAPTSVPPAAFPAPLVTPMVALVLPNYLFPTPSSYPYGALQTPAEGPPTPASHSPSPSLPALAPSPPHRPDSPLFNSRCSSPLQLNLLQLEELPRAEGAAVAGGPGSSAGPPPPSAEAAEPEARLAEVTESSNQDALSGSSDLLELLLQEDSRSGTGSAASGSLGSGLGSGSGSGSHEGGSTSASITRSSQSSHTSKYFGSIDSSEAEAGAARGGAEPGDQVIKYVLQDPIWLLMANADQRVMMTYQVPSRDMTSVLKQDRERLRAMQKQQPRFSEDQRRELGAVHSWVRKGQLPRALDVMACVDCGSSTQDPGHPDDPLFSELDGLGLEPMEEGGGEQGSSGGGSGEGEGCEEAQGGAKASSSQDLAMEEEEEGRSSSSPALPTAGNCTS

| effect of a mutation on the interaction | Variant |
| --- | --- |
| disrupting interaction strength | MAAAAVVAATVPAQSMGADGASSVHWFRKGLRLHDNPALLAAVRGARCVRCVYILDPWFAASSSVGINRWRFLLQSLEDLDTSLRKLNSRLFVVRGQPADVFPRLFKEWGVTRLTFEYDSEPFGKERDAAIMKMAKEAGVEVVTENSHTLYDLDRIIELNGQKPPLTYKRFQALISRMELPKKPAVAVSSQQMESCRAEIQENHDDTYGVPSLEELGFPTEGLGPAVWQGGETEALARLDKHLERKAWVANYERPRMNANSLLASPTGLSPYLRFGCLSCRLFYYRLWDLYKKVKRNSTPPLSLFGQLLWREFFYTAATNNPRFDRMEGNPICIQIPWRRNPEALAKWAEGKTGFPWIDAIMTQLRQEGWIHHLARHAVACFLTRGDLWVSWESGVRVFDELLLDADFSVNAGSWMWLSCSAFFQQFFHCYCPVGFGRRTDPSGDYIRRYLPKLKGFPSRYIYEPWNAPESVQKAAKCIIGVDYPRPIVNHAETSRLNIERMKQIYQQLSRYRGLCLLASVPSCVEDLSHPVAEPGSSQAGSISNTGPRALSSGPASPKRKLEAAEEPPGEELTKRARVTEMPTQEPASKDS [D339R] |

Variants of: B2
Conditions: with cry2_mouse Cry2, Q9R194

| effect of a mutation on the interaction | Variant |
| --- | --- |
| decreasing interaction strength | MKRGGRDSDRNSSEEGTAEKSKKLRTTNEHSQTCDWGNLLQDIILQVFKYLPLLDRAHASQVCRNWNQVFHMPDLWRCFEFELNQPATSYLKATHPELIKQIIKRHSNHLQYVSFKVDSSKESAEAACDILSQLVNCSLKTLGLISTARPSFMDLPKSHFISALTVVFVNSKSLSSLKIDDTPVDDPSLKVLVANNSDTLKLLKMSSCPHVSPAGILCVADQCHGLRELALNYHLLSDELLLALSSEKHVRLEHLRIDVVSENPGQTHFHTIQKSSWDAFIRHSPKVNLVMAFFLYEEEFDPFFRYEIPATHLYFGRSVSKDVLGRVGMTCPRLVELVVCANGLRPLDEELIRIAERCKNLSAIGLGECEVSCSAFVEFVKMCGGRLSQLSIMEEVLIPDQKYSLEQIHWEVSKHLGRVWFPDMMPTW [Y292A] |
| disrupting interaction strength | MKRGGRDSDRNSSEEGTAEKSKKLRTTNEHSQTCDWGNLLQDIILQVFKYLPLLDRAHASQVCRNWNQVFHMPDLWRCFEFELNQPATSYLKATHPELIKQIIKRHSNHLQYVSFKVDSSKESAEAACDILSQLVNCSLKTLGLISTARPSFMDLPKSHFISALTVVFVNSKSLSSLKIDDTPVDDPSLKVLVANNSDTLKLLKMSSCPHVSPAGILCVADQCHGLRELALNYHLLSDELLLALSSEKHVRLEHLRIDVVSENPGQTHFHTIQKSSWDAFIRHSPKVNLVMYFFLYEEEFDPFFRYEIPATHLAFGRSVSKDVLGRVGMTCPRLVELVVCANGLRPLDEELIRIAERCKNLSAIGLGECEVSCSAFVEFVKMCGGRLSQLSIMEEVLIPDQKYSLEQIHWEVSKHLGRVWFPDMMPTW [Y314A] |
| decreasing interaction strength | MKRGGRDSDRNSSEEGTAEKSKKLRTTNEHSQTCDWGNLLQDIILQVFKYLPLLDRAHASQVCRNWNQVFHMPDLWRCFEFELNQPATSYLKATHPELIKQIIKRHSNHLQYVSFKVDSSKESAEAACDILSQLVNCSLKTLGLISTARPSFMDLPKSHFISALTVVFVNSKSLSSLKIDDTPVDDPSLKVLVANNSDTLKLLKMSSCPHVSPAGILCVADQCHGLRELALNYHLLSDELLLALSSEKHVRLEHLRIDVVSENPGQTHFHTIQKSSWDAFIRHSPKVNLVMYFFLYEEEFDPFFRYEIPATHLYFGRSVSKDVLGRVGMTCPRLVELVVCANGLRPLDEELIRIAERCKNLSAIGLGECEVSCSAFVEFVKMCGGRLSQLSIMEEVLIPDQKYSLEQIHWEVSKHLGRVWFPDMMPTA [W428A] |
| disrupting interaction strength | MKRGGRDSDRNSSEEGTAEKSKKLRTTNEHSQTCDWGNLLQDIILQVFKYLPLLDRAHASQVCRNWNQVFHMPDLWRCFEFELNQPATSYLKATHPELIKQIIKRHSNHLQYVSFKVDSSKESAEAACDILSQLVNCSLKTLGLISTARPSFMDLPKSHFISALTVVFVNSKSLSSLKIDDTPVDDPSLKVLVANNSDTLKLLKMSSCPHVSPAGILCVADQCHGLRELALNYHLLSDELLLALSSEKHVRLEHLRIDVVSENPGQTHFHTIQKSSWDAFIRHSPKVNLVMYFFLYEEEFDPFFRYEIPATHLYFGRSVSKDVLGRVGMTCPRLVALVVCANGLRPLDEELIRIAERCKNLSAIGLGECEVSCSAFVEFVKMCGGRLSQLSIMEEVLIPDQKYSLEQIHWEVSKHLGRVWFPDMMPTW [E336A] |
| disrupting interaction strength | MKRGGRDSDRNSSEEGTAEKSKKLRTTNEHSQTCDWGNLLQDIILQVFKYLPLLDRAHASQVCRNWNQVFHMPDLWRCFEFELNQPATSYLKATHPELIKQIIKRHSNHLQYVSFKVDSSKESAEAACDILSQLVNCSLKTLGLISTARPSFMDLPKSHFISALTVVFVNSKSLSSLKIDDTPVDDPSLKVLVANNSDTLKLLKMSSCPHVSPAGILCVADQCHGLRELALNYHLLSDELLLALSSEKHVRLEHLRIDVVSENPGQTHFHTIQKSSWDAFIRHSPKVNLVMYFFLYEEEFDPFFRYEIPATHLYFGRSVSKDVLGRVGMTCPRLVELVVCANGLRPLDEELIRIAERCKNLSAIGLGECEVSCSAFVEFVKMCGGRLSQLSIMEEVLIPDQKYSLEQIHWEVSKHLGRVWFPDMMATW [P426A] |
